Where two headings read alike, the source gives them in different places.

Assay [1] deals with Human PCSK9 antibody, which included human κ light chain subgroup 4 (Vκ4) (manufactured by R&D Systems, Inc.). Kind of assay: ELISA, antibody immobilised, binder at 50 ug/mL, anti-6-His detection (repeats Table 17).
The target in assay [2] is Humira, which included human κ light chain subgroup 1 (Vκ1) (manufactured by Eisai Co., Ltd.). Described as above.
The target of assay [3] is Human PDGFR alpha antibody, which included human κ light chain subgroup 3 (Vκ3) (manufactured by R&D Systems, Inc.). Described as above.
Assay [4] addresses Humira, which included human κ light chain subgroup 1 (Vκ1) (manufactured by Eisai Co., Ltd.). Put plainly: ratio of ELISA A450 on Humira (Vκ1) to A450 on Human PDGFR alpha antibody (Vκ3) (repeats Table 17).
Assay [5] addresses Human PCSK9 antibody, which included human κ light chain subgroup 4 (Vκ4) (manufactured by R&D Systems, Inc.). Put plainly: ELISA, antibody immobilised (10 ug/mL), binder at 50 ug/mL, anti-6-His detection, blank subtracted.
Assay [6] concerns the target Humira, which included human κ light chain subgroup 1 (Vκ1) (manufactured by Eisai Co., Ltd.). The assay is described as above.
Assay [7] has as its target Human PDGFR alpha antibody, which included human κ light chain subgroup 3 (Vκ3) (manufactured by R&D Systems, Inc.). The description is as above.
The target of assay [8] is Humira, which included human κ light chain subgroup 1 (Vκ1) (manufactured by Eisai Co., Ltd.). Kind of assay: ratio of ELISA A450 on Humira (Vκ1) to A450 on Human PCSK9 antibody (Vκ4) (repeats Table 17).
Assay [9] has the same target. Kind of assay: ratio of ELISA A450 on Humira (Vκ1) to A450 on Human PDGFR alpha antibody (Vκ3).
Assay [10] has the same target. Kind of assay: ratio of ELISA A450 on Humira (Vκ1) to A450 on Human PCSK9 antibody (Vκ4).
In assay [11] the target is Human CTLA4 antibody, which included human κ light chain subgroup 3 (Vκ3) (manufactured by R&D Systems, Inc.). Put plainly: ELISA, antibody immobilised (10 ug/mL), binder at 50 ug/mL, anti-6-His detection, blank subtracted.
For assay [12], the target named is Herceptin, which included human κ light chain subgroup 1 (Vκ1) (manufactured by Chugai Pharmaceutical Co., Ltd.). The assay is described as above.
For assay [13], the target named is Human CTLA4 antibody, which included human κ light chain subgroup 3 (Vκ3) (manufactured by R&D Systems, Inc.). The assay is described as above. This is another data set of the same source.
For assay [14], the target named is Herceptin, which included human κ light chain subgroup 1 (Vκ1) (manufactured by Chugai Pharmaceutical Co., Ltd.). Described as above. This is another data set of the same source.

Regarding “C3 immunoglobulin-binding domain of Protein L derived from Finegoldia magna (FpL_C3), wild-type”, the absorbance at 450 nm (absorbance at 450 nm) in assay [1] stood at 0.91; in [2] it was 0.82; in assay [3], 0.71; in [5] it was 0.91; in assay [6], 0.82; in [7], 0.71. The Absorbance ratio (Vκ1/Vκ3) in assay [4] and in [9] was 1.2 throughout. The Absorbance ratio (Vκ1/Vκ4) in assay [8] and in [10] was 0.9 throughout.
As to “FpL_C3KR (all lysine residues of FpL_C3 substituted with arginine) (designed binder)”, the absorbance at 450 nm (absorbance at 450 nm) in [11] turned out to be 0.07; in assay [12], 0.86; in assay [13] it was 0.32; in assay [14], 0.92; in assay [5], 0.77; in assay [7] it was 0.21.
For the substance “FpL_C3KR_K38E (K(R)38E introduced into FpL_C3KR) (designed binder)”, the absorbance at 450 nm (absorbance at 450 nm) in [11] was 0.98.

For the origin of these results see patent EP4703372A1.
